Results on 2 molecules are retold here after US20210380675A1 (Kyowa Kirin, published 2021).

Residue numbers refer to the chain shown, from its start.

In test [1] the target is T1, cynomolgus IL-36α, truncated (cynomolgus macaque (Macaca fascicularis), UniProt Q9UHA7 14-158 (human entry), limits assumed).
T1 chain: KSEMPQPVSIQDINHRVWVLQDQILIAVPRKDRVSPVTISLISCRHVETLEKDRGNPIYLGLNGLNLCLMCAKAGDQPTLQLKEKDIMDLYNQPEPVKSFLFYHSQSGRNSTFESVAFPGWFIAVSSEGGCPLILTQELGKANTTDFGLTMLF
Description: cell-based or functional assay.

For test [2], the target named is T2, human IL-36γ, truncated (human, UniProt Q9NZH8 18-169).
T2 sequence: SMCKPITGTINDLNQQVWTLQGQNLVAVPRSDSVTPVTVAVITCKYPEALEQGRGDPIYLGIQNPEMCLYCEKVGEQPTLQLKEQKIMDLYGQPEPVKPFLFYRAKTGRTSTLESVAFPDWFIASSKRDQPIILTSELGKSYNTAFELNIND
Description: cell-based or functional assay.

Test [3] addresses T3, cynomolgus IL-36γ, truncated (cynomolgus macaque (Macaca fascicularis), UniProt Q9NZH8 18-167 (human entry), limits assumed).
T3 chain: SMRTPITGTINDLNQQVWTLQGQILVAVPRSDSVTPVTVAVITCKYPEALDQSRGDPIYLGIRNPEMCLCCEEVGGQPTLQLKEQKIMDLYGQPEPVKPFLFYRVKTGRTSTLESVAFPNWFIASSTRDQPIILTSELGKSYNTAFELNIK
Description: cell-based or functional assay.

In test [4] the target is T2, human IL-36γ, truncated. The experiment in a line: cell-based or functional assay. The source holds these as a separate data set.
Test [5] has as its target T4, human IL-36α(R12), truncated (human, UniProt Q9UHA7 6-158).
T4 construct: Untagged after removal of the His-SUMO tag; also called hIL-36alpha
T4 chain: T1 chain with S2I, E3D, M4T, P7R, V8G, I24T, V34M, S40A, A74V
Description: ELISA binding screen and HaCaT assay. In general terms: ELISA stands for enzyme-linked immunosorbent assay.

The target of test [6] is T2, human IL-36γ, truncated. Description: SPR, Biacore T200, antibody on chip, IL-36 as analyte, 1:1 Langmuir fit. The essentials:
(§1)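 Single-cycle kinetics: mouse/human chimeric or mouse antibodies captured (~200 RU) via anti-human or anti-mouse Fc on CM5, then increasing IL-36 concentrations injected, 300 s association, 1200 s dissociation. Alternatively ~2000 RU antibody amine-coupled, analyte 30 μL/min for 420 s, 3600 s dissociation, 25° C; double-referenced sensorgrams.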
A general note: SPR reads the build-up and loss of mass on a sensor chip optically.

Test [7] addresses T4, human IL-36α(R12), truncated. Description: cell-based or functional assay.
The target of test [8] is T1, cynomolgus IL-36α, truncated. Description: ELISA binding screen and HaCaT assay.
Test [9] deals with T3, cynomolgus IL-36γ, truncated. The experiment in a line: ELISA binding screen and HaCaT assay.
Test [10] addresses T4, human IL-36α(R12), truncated. Description: SPR, Biacore T200, antibody on chip, IL-36 as analyte, 1:1 Langmuir fit. The essentials: as §1

The Kd is the constant that tells how readily two partners part at equilibrium. A low value points to higher affinity. As usually defined, the koff is the first-order rate constant of dissociation. Lower therefore signals a long-lived complex. As a reminder, the kon is a measure of how fast the partners come together. Read a high kon as fast association.

B1: 144L472A (antibody, V domains shown)
VH: EVQLQQSGAELVKPGASVKLSCTVSGFNIKDTYMYWVKQRPEQGLEWIGRIDPANGYAKYDPKFQGKATLTADTSSNTAYLQLSSLTSEDTAVYFCARFHWYDSAFYFDFWGQGTTLTVSS
VL: QAVVTQESALTTSPGETVTLTCRSSSGAVTTSNYANWVQEKPDHLFTGLIGGTNNRAPGVPARFSGSLIGDKAALTITGAQTEDEAIYFCGLWYSNHWVFGGGTKLTVL
notes: Mouse monoclonal from hybridoma; mouse IgG heavy and lambda light chain
For B1, in test [1], the “IC50 of IL-8 secretion, HaCaT, 10 nM cynomolgus IL-36α, FIG. 2B” value turned out to be 63.2 nM. Also, in the test with human IL-36γ, truncated [2], the “IC50 of IL-8 secretion, HaCaT, 10 nM human IL-36γ, FIG. 1F” value is 11.9 nM. Also, the “IC50 of IL-8 secretion, HaCaT, 10 nM cynomolgus IL-36γ, FIG. 2D” value in test [3] was 17.1 nM. In the test with human IL-36γ, truncated [4], the “IC50 of IL-8 secretion, primary human monocytes, 6 nM human IL-36γ, FIG. 5C” value was 15.7 nM and the “IC50 of IL-8 secretion, primary human monocytes, 50 nM human IL-36γ, FIG. 5D” value is 40 nM. Besides, the binding result in test [5] is listed as “binds”. Further, in the test with human IL-36γ, truncated [6], the Kd was 1000 nM, the koff amounted to 0.00208 s⁻¹ and the kon came out at 2070 M⁻¹ s⁻¹.

B2: 144D666C (antibody, V domains shown)
VH: EVQLQQSGAELVKPGASVKLTCTASGFNIKDTYIYWVKQRPAQGLEWIGRIDPANAYTKFDPKFQGKATLTADTSSNTAYLQLSSLTSEDTAVYYCTRFHWYGSSFFFDYWGQGTTLTVSS
VL: B1 VL with S26T, N54D, A57P, G91A, H97L
notes: as for B1
B2: the “IC50 of IL-8 secretion, HaCaT, 10 nM human IL-36α, FIG. 1A” value in [7] came out at 49.5 nM. Moreover, the “IC50 of IL-8 secretion, HaCaT, 10 nM human IL-36γ, FIG. 1D” value with human IL-36γ, truncated [2] stood at 5.12 nM. Besides, the binding result in [8] is given as “binds”. In addition, the binding result in test [9] was “binds”. In test [10], this molecule registered a Kd of 18 nM, a koff of 0.00184 s⁻¹ and a kon of 102000 M⁻¹ s⁻¹. In the test with human IL-36γ, truncated [6], the Kd turned out to be 1.08 nM, the koff was determined as 0.000676 s⁻¹ and the kon was 625000 M⁻¹ s⁻¹.
